From paper PMC12990809

Columns and labels:
Experiment in all cases: pulldown
Conditions in all cases: 20 nM protein, 1.5 uM RNA pool; 20 mM HEPES pH 7.8, 70 mM KCl, 10 mM NaCl, 10% glycerol, 2 mM DTT, 0.1 ug/uL BSA; 30 min, 4 C
[1] = target: T1, NEMVEDRAFT_v1g141408 (Nematostella vectensis) (UniProt A7T170)
T1 sequence: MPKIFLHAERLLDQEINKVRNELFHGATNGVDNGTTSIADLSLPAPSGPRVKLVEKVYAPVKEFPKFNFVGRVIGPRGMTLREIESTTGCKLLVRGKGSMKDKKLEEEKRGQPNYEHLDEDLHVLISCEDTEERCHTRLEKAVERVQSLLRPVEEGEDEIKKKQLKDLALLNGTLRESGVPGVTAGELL

DDX53 (Homo sapiens) = DDX53 (Homo sapiens) (UniProt Q86TM3)
Sequence of DDX53 (Homo sapiens) (Q86TM3 whole entry): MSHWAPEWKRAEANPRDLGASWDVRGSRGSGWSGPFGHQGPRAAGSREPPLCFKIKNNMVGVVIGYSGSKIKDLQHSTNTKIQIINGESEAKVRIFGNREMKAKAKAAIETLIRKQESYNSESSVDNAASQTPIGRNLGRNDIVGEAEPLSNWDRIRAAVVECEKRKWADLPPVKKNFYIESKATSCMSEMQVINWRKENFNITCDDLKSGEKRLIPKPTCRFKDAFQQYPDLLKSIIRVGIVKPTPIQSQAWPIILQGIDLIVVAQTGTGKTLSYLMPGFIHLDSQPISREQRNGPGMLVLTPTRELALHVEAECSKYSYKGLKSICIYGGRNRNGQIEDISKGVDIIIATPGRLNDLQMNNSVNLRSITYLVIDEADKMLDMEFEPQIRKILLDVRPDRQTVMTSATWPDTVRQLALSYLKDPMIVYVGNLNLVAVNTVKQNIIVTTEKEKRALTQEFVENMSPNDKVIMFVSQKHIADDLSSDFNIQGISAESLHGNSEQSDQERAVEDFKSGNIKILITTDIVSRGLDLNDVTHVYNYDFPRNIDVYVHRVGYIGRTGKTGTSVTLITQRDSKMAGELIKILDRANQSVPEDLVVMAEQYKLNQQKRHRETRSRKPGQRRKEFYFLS

mex3c (Danio rerio) = target: T2, mex3c (Danio rerio) (UniProt A0A8M1REM5)
T2 sequence: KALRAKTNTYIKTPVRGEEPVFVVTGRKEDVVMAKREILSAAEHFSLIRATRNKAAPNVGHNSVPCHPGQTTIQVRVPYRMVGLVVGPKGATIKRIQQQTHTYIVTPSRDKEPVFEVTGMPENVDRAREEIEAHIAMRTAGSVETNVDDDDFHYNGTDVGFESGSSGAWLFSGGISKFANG

[2] = target: T3, ENSMODG00000011916 (Monodelphis domestica) (UniProt F7E028)
T3 sequence: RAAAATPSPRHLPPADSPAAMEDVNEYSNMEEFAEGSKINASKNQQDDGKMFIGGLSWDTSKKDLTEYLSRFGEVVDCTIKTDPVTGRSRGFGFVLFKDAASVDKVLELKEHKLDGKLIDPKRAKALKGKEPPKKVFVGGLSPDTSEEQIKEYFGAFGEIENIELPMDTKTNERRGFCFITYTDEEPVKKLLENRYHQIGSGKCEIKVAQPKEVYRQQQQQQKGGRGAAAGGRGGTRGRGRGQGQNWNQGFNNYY

[3] = target: T4, BATDEDRAFT_13807 (Batrachochytrium dendrobatidis) (UniProt F4NYD0)
T4 sequence: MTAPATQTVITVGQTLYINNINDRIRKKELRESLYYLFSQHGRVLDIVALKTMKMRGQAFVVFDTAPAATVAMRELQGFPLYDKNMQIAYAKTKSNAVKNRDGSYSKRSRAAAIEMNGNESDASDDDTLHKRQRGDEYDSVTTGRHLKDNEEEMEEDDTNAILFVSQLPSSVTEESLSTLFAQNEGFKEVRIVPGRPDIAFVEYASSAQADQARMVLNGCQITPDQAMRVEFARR

[4] = target: T5, LmjF.29.1340 (Leishmania major) (UniProt E9ADZ3)
T5 sequence: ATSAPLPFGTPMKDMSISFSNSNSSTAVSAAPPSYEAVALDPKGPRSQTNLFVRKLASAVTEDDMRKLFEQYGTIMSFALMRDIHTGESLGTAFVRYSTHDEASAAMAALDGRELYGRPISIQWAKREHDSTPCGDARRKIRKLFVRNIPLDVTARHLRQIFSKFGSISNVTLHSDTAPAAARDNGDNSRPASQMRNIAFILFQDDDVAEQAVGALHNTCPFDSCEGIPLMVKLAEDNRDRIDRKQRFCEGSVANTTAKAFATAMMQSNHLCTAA

[5] = target: T6, LmjF.29.1350 (Leishmania major) (UniProt E9ADZ4)
T6 sequence: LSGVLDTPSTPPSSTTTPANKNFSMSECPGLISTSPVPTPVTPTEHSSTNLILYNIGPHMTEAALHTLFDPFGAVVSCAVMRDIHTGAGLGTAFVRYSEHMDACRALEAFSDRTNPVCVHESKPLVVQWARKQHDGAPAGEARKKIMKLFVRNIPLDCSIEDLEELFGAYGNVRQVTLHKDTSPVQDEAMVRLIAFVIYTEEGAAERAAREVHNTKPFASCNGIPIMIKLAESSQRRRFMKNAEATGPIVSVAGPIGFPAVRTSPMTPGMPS

[6] = target: T7, Tb927.3.3960 (Trypanosoma brucei) (UniProt Q57WD2)
T7 sequence: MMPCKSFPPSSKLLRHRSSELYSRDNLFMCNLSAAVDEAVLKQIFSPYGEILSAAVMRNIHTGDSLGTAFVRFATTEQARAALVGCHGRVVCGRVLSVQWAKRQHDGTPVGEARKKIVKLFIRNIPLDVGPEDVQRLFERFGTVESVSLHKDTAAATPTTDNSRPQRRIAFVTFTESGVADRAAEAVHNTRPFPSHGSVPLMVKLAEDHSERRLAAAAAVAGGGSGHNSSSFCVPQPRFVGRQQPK

[7] = target: T8, LmjF.29.0680 D253N (Leishmania major) (UniProt E9ADS0)
T8 sequence: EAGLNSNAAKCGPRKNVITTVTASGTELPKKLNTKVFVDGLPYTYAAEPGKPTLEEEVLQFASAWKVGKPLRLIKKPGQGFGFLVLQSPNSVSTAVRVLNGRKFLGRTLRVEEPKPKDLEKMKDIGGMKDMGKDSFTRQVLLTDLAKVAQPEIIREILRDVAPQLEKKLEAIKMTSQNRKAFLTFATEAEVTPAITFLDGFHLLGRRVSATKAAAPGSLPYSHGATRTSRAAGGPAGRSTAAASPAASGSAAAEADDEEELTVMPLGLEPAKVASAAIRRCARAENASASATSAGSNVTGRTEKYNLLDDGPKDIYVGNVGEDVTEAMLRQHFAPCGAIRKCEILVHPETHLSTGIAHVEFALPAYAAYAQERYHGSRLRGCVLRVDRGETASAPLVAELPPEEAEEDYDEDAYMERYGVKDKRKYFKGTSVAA

Substance ACUAAC [RNAcompete motif RNCMPT00718] has a binding signal (z-score (mean of top ten 7-mers)) [1] of 18.9.

In the case of AGAAUAA [RNAcompete motif RNCMPT00743], the binding signal (z-score (mean of top ten 7-mers)) (DDX53 (Homo sapiens)) is reported as 6.26.

AGAGUA [RNAcompete motif RNCMPT00727] showed a binding signal (z-score (mean of top ten 7-mers)) (mex3c (Danio rerio)) of 10.1.

Work on AGAUAAA [RNAcompete motif RNCMPT00707] yielded a binding signal (z-score (mean of top ten 7-mers)) [2] of 8.36.

With AUNGCAC [RNAcompete motif RNCMPT00739] the binding signal (z-score (mean of top ten 7-mers)) [3] was 7.82.

CAUAGU [RNAcompete motif RNCMPT00712] was tested, and the binding signal (z-score (mean of top ten 7-mers)) [4] was 16.4.

For CAUAGU [RNAcompete motif RNCMPT00713], the binding signal (z-score (mean of top ten 7-mers)) [5] was 24.5.

With CAUUGU [RNAcompete motif RNCMPT00735] the binding signal (z-score (mean of top ten 7-mers)) [6] was 23.

Substance GAAGGA [RNAcompete motif RNCMPT00720] has a binding signal (z-score (mean of top ten 7-mers)) [7] of 7.49.
